From paper PMC9108660 come the findings set out here.

For data set [1], the target named is dCas9 (catalytically deactivated Cas9) (UniProt Q99ZW2). Kind of data set: SPR. The conditions noted are these: SPR: 2 mM MgCl2, 37 °C, 30 min, 2 µL DNA (up to 1000 ng/µL), dRNP on graphdiyne chip, rinse 2 mM MgCl2, bead assay: 2 mM MgCl2, 37 °C, 1 h, pH not stated.
For data set [2] the target is unchanged. Kind of data set: magnetic bead pull-down, qPCR. The conditions noted are these: 2 mM Mg2+; SPR: 2 mM MgCl2, 37 °C, 30 min, 2 µL DNA (up to 1000 ng/µL), dRNP on graphdiyne chip, rinse 2 mM MgCl2; bead assay: 2 mM MgCl2, 37 °C, 1 h; pH not stated.

Chain of UniProt Q99ZW2 (Q99ZW2 whole entry): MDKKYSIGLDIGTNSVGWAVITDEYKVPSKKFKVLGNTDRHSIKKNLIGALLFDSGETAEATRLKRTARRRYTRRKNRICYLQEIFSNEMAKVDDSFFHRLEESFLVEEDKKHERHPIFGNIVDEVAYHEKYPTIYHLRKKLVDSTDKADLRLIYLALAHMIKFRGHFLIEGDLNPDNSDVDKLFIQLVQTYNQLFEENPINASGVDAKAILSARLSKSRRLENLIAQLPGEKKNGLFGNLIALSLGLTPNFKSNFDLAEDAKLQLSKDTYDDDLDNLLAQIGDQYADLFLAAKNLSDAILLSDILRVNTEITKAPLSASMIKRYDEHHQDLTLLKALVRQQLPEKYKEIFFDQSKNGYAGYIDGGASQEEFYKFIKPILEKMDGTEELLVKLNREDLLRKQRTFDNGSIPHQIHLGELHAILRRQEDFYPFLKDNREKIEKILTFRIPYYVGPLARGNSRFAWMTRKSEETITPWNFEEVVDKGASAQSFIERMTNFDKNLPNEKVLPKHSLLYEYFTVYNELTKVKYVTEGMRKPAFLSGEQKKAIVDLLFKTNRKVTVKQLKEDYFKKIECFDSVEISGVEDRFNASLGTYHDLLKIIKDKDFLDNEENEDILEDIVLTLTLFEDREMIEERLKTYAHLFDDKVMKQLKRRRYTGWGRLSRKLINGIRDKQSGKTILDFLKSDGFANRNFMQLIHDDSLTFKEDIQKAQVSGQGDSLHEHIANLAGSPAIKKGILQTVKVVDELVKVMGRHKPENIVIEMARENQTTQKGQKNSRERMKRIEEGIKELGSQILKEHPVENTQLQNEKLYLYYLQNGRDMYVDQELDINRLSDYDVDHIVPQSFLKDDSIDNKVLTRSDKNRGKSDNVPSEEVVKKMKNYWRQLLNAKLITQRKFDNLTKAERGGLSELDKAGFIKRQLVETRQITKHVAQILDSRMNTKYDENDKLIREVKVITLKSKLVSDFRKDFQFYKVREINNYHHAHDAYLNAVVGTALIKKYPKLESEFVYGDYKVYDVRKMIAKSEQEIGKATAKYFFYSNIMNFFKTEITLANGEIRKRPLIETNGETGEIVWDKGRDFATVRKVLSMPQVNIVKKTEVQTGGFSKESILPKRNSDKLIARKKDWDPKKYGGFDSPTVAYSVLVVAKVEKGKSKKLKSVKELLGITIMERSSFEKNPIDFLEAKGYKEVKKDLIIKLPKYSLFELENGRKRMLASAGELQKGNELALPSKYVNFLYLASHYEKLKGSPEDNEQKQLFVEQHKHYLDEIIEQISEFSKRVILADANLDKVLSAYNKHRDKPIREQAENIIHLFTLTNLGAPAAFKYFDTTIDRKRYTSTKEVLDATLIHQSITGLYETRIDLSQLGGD

Sequence “GGGGUUCGCCUUCCGCCGCGUGGGUUUUAGAGCUAGAAAUAGCAAGUUAAAAUAAGGCUAGU [sgRNA-GFP-Pos3 + pCDH-GFP-5k amplicon]” gave a dissociation constant (Kd) in data set [1] (2 mM Mg2+, ka 0.11e5 M-1s-1, kd 6.5e-3 s-1) of 591 nM.

“GGGUGCCUGCAGCUCCACACUAGGUUUUAGAGCUAGAAAUAGCAAGUUAAAAUAAGGCUAGU [sgRNA-Mut3 + pUC19-Mut3-0.3k amplicon]” returned a binding signal in data set [2] of 99.8 % captured.

For the sequence “GGGUGCCUGCAGCUCCACACUAGGUUUUAGAGCUAGAAAUAGCAAGUUAAAAUAAGGCUAGU [sgRNA-Mut3 + pUC19-Mut3-0.8k amplicon]”, the Kd in data set [1] was 7.61 10^-8 M. Also, in data set [2], the binding signal is 99.8 % captured.

For the sequence “GGGUGCCUGCAGGUCGCACCUAGGUUUUAGAGCUAGAAAUAGCAAGUUAAAAUAAGGCUAGU [sgRNA-Mut1 + pUC19-Mut1-0.3k amplicon]”, the binding signal in data set [2] came to 89.2 % captured.

As for “GGGUGCCUGCAGGUCGCACCUAGGUUUUAGAGCUAGAAAUAGCAAGUUAAAAUAAGGCUAGU [sgRNA-Mut1 + pUC19-Mut1-0.8k amplicon]”, in data set [2], the binding signal was 69.8 % captured.

Take “GGGUGUAGUAGCCGCCGUCGCGCGUUUUAGAGCUAGAAAUAGCAAGUUAAAAUAAGGCUAGU [sgRNA-GFP-Pos2 + pCDH-GFP-2k amplicon]”: the binding signal in data set [2] came to 99.4 % captured.

As for “GGGUGUAGUAGCCGCCGUCGCGCGUUUUAGAGCUAGAAAUAGCAAGUUAAAAUAAGGCUAGU [sgRNA-GFP-Pos2 + pCDH-GFP-5k amplicon]”, in data set [1], the Kd was 1.38 10^-8 M. The same sequence registered a binding signal in data set [2] of 99.7 % captured.
